Measured values from US20250195614A1 (IMMUNITYBIO, published 2025).

How the values were obtained:
[1] = target: IL2Rβ and common γ chain on 32Dβ cells; assay: cell-based or functional assay
TGF-β1 = TGF-β1 (UniProt P01137 279-390); assay: cell-based or functional assay
TGF-β1, sequence (P01137 279-390 limits assumed): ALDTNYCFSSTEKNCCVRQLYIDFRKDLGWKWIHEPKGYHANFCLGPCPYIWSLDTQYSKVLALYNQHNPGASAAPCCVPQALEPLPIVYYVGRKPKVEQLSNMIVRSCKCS

Molecule: recombinant IL-15 (from UniProt P40933 49-162) (ligand)
- EC50 (printed as IC50), IL-15 activity on IL-15 dependent 32Dβ cells (WST-1, OD450) [1]: 0.0818 nM
- EC50, 32Dβ cell proliferation (WST1, absorbance 450 nM) [1]: 0.0106 nM

B1: commercial TGF-β1 receptor II-Fc fusion (TGFRII/Fc, R&D Systems) (Fc fusion, UniProt P37173 24-159, looked up, not shown: a dimerising Fc or GST)
chain: IPPHVQKSVNNDMIVTDNNGAVKFPQLCKFCDVRFSTCDNQKSCMSNCSITSICEKPQEVCVAVWRKNDENITLETVCHDPKLPYHDFILEDAASPKCIMKEKKKPGETFFMCSCSSDECNDNIIFSEEYNTSNPD
- IC50, TGF-β1 blocking activity in HEK-Blue TGF-β cells (OD620) (TGF-β1): 0.47 nM
- IC50, inhibition of TGFβ1 (0.1 nM) activity in HEK-Blue TGFβ cells (QUANTI-Blue OD 620-655 nM) (TGF-β1): 0.461 nM
- TGF-β1 blocking activity against that of TGFRt15-TGFRs or TGFRt15*-TGFRs (HEK-Blue TGF-β cells) (TGF-β1): ~10 fold
